Measurements as given in US9512196B2, “Short-form human MD-2 as a negative regulator of toll-like receptor 4 signaling” (Cedars-Sinai Medical Center, priority 2008, dated 2016).
Residue numbers refer to the chain shown, from its start. In names and notes the source's numbering stands. Each block holds one molecule with its values, some of them ahead of it.

Experiments:
[1] = test system: MD-2 tyrosine phosphorylation; experiment: LPS-induced MD-2 tyrosine phosphorylation in HEK293 cells (immunoprecipitation, anti-phosphotyrosine immunoblot); assay type: cell-based, human; details: pretreatment 1-2 h before LPS; HEK293 cells overexpressing TLR4 and MD-2
Experimental: 24 h later cells were left untreated (lanes 1 and 2) or stimulated with LPS (lanes 3-7). Flag-tagged proteins were immunoprecipitated with an anti-Flag Ab in cell lysates and analyzed by SDS-PAGE and immunoblotted with an anti-phosphotyrosine Ab (top panel), or an anti-Flag Ab (middle and lower panels). (B) HEK293 cells were transiently transfected with Flag-TLR4 and Flag-MD-2 (lanes 1-5). 24 hrs later, cells were pretreated for 2 hrs with herbimycin A at 0.5 μg/ml (lane 3) or 2.5 μg/ml (lane 4), or for 1 hr with 2 μM cytochalasin D (lane 5) prior to stimulation with LPS for 5 mins.
(A) HEK293 cells were transiently transfected with TLR4 and Myc-MD-2 (lanes 1-6). […] Myc-tagged proteins were immunoprecipitated with an anti-Myc Ab in cell lysates, and analyzed by SDS-PAGE and immunoblotted with an anti-phosphotyrosine Ab (top panel), or an anti-Myc Ab (lower panel). […] Cells were left untreated or stimulated with LPS for 6 hours and luciferase activity measured in cell lysates and expressed as fold induction relative to untreated cells.
Tyrosine phosphorylation of numerous proteins is induced upon stimulation with LPS and indeed the LPS receptor, TLR4, is itself tyrosine phosphorylated. […] Proteins were immunoprecipitated from cell extracts with an anti-Flag Ab and analyzed by immunoblotting with an Ab that detects proteins phosphorylated on phosphotyrosine residues. […]

[2] = biological target: T1, TLR4 (Homo sapiens, UniProt O00206); experiment: NF-κB luciferase reporter in HEK293 cells expressing TLR4, LPS stimulation; assay type: cell-based; details: for Ability to activate NF-κB upon LPS stimulation compared to wild-type MD-2: construct transfected into HEK293 TLR4/NF-κB reporter cells, LPS 6 h; for Decrease in NF-κB activity upon LPS stimulation: versus wild-type MD-2
T1 construct: expressed in transfected cells; host or cells: HEK293
Experimental: (A) HEK-293 cells stably transfected with TLR4 and a NF-κB reporter gene were treated with supernatants containing either MD-2 or MD-2s as described in the examples herein. Cells were left untreated or stimulated with LPS for 24 h. Mean relative stimulation of luciferase activity±S.D. for a representative experiment, each performed in triplicate, is shown. (B) HEK-293 cells stably transfected with TLR4 and a NF-κB reporter gene were transiently transfected with plasmids encoding for either MD-2, MD-2s or CD14 as shown. 24 h later, cells were left untreated or stimulated with LPS (250 ng/ml) for 6 h. Mean relative stimulation of luciferase activity±SD for a representative experiment, each performed in triplicate, is shown. (C) and (D) Supernatants were also collected and measured for IL-8 secretion.
(A) HEK293 cells were transiently transfected with plasmids encoding TLR4 and a NF-κB reporter gene in combination with MD-2 and MD-2s as indicated. 24 h later, cells were left untreated or incubated with LPS (250 ng/ml) for 5 h. Mean relative stimulation of luciferase activity±S.D. for a representative experiment from three separate experiments, each performed in triplicate, is shown. (B) HEK-293 cells stably transfected with TLR4 and a NF-κB reporter gene were treated with supernatants containing either MD-2 and MD-2s as depicted and left untreated or incubated with LPS for 24 h. Mean relative stimulation of luciferase activity±S.D. for a representative experiment from three separate experiments, each performed in triplicate, is shown.
HEK293 cells were transiently transfected with the expression vectors noted in combination with constructs encoding the NF-κB- and IL-8-luciferase reporter gene, and either the β-galactosidase gene or the phRL-TK report gene to normalize for transfection efficiency. In all cases, total DNA concentration was kept constant by supplementation with empty vector control. Following overnight incubation, cells were stimulated for 6 hours with 50 ng/ml LPS and then lysed, and luciferase activity was measured as described previously (Ohta et al. (2004) BIOCHEM BIOPHYS RES COMMUN 323, 1103-1108). Data are shown as mean±SD of three or more independent experiments and are reported as a percentage of LPS-stimulated NF-κB and IL-8 promoter activity, or relative luciferase activity.
The requirement for MD-2s in LPS mediated NF-κB activation was assessed. It has been shown that the soluble form of wild-type MD-2 confers LPS responsiveness to cells expressing TLR4; therefore, it was investigated if soluble MD-2s was also bioactive. Culture supernatants were obtained from HEK293 cells transiently expressing control vector, MD-2, or MD-2s, and incubated with HEK293 cells stably transfected with TLR4 and an NF-κB-dependent luciferase reporter gene.
MD-2s was tested to see if it needed to be transiently expressed in TLR4 reporter cells in order to mediate NF-κB activation following LPS stimulation. HEK293 cells stably transfected with TLR4 and an NF-κB-dependent luciferase reporter gene were transiently transfected with plasmids encoding CD14 in combination with either MD-2 or MD-2s, and subsequently treated with LPS.
HEK293 cells were transiently transfected with plasmids encoding CD14, TLR4, and wild-type MD-2 in conjunction with a plasmid encoding the NF-κB-dependent luciferase reporter gene in the presence or absence of a plasmid encoding MD-2s. […] Furthermore, we assessed the inhibitory role of soluble MD-2s following LPS stimulation. HEK293 cells stably transfected with TLR4 and an NF-κB-dependent luciferase reporter gene were incubated with supernatants obtained from HEK293 cells transiently expressing a constant amount of MD-2 with increasing concentrations of MD-2s.

T1 sequence (O00206 24-839): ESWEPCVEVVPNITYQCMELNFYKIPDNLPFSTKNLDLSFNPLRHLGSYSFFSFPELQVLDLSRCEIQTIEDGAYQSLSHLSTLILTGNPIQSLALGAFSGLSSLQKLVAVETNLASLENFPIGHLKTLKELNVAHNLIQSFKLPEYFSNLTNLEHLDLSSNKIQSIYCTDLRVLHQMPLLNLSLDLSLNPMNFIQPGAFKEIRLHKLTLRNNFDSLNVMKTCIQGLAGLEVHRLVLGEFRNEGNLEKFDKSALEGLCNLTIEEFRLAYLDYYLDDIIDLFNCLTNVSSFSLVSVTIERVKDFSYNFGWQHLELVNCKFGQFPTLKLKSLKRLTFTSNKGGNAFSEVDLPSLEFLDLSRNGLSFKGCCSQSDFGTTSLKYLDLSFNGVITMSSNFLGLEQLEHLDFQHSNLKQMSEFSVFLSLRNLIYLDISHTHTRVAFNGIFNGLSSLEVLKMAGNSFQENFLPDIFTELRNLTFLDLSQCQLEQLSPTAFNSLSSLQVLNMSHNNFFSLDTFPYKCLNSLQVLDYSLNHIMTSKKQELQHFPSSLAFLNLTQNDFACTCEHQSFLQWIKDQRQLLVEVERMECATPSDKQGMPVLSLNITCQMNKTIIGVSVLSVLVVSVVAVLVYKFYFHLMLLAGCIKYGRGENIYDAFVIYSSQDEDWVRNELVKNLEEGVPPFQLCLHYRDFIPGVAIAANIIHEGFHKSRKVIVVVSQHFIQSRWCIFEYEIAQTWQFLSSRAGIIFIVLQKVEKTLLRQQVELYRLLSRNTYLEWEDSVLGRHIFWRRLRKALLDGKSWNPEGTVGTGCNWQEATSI

Molecule: C=C1[C@@H](C)[C@H]2[C@H](Cc3ccccc3)NC(=O)[C@]23[C@H](OC(C)=O)/C=C/[C@@](C)(O)C(=O)[C@@H](C)C/C=C/[C@H]3[C@@H]1O [cytochalasin D]
Effect on LPS-induced MD-2 tyrosine phosphorylation [1]: significantly inhibited

Molecule: CO[C@H]1[C@@H](OC)C[C@H](C)[C@@H](OC)C2=CC(=O)C=C(NC(=O)/C(C)=C/C=C\[C@H](OC)[C@@H](OC(N)=O)/C(C)=C/[C@@H]1C)C2=O [herbimycin A]
Effect on LPS-induced MD-2 tyrosine phosphorylation [1]: significantly inhibited

Ability to activate NF-κB upon LPS stimulation compared to wild-type MD-2 [2]: significantly less potent
Decrease in NF-κB activity upon LPS stimulation [2]: 50%
B1: MD-2-Y22F: human MD-2 with tyrosine 22 mutated to phenylalanine (protein)
chain: MLPFLFFSTLFSSIFTEAQKQFWVCNSSDASISYTYCDKMQYPISINVNPCIELKRSKGLLHIFYIPRRDLKQLYFNLYITVNTMNLPKRKEVICRGSDDDYSFCRALKGETVNTTISFSFKGIKFSKGKYKCVVEAISGSPEEMLFCLEFVILHQPNSN
modifications: Tyrosine to phenylalanine mutation at position 22 of human MD-2
notes: human MD-2 with tyrosine 22 mutated to phenylalanine

Ability to activate NF-κB upon LPS stimulation compared to wild-type MD-2 [2]: significantly less potent
Decrease in NF-κB activity upon LPS stimulation [2]: 50%
B2: MD-2-Y131F: human MD-2 with tyrosine 131 mutated to phenylalanine (protein)
chain: B1 chain with F22Y, Y131F
modifications: Tyrosine to phenylalanine mutation at position 131 of human MD-2
notes: human MD-2 with tyrosine 131 mutated to phenylalanine

B3: MD-2-Y22FY131F: human MD-2 double mutant, tyrosines 22 and 131 mutated to phenylalanine (protein)
chain: B1 chain with Y131F
modifications: Tyrosine to phenylalanine mutation at position 22 and 131 of human MD-2
notes: human MD-2 double mutant, tyrosines 22 and 131 mutated to phenylalanine
Ability to activate NF-κB upon LPS stimulation compared to wild-type MD-2 [2]: do not activate NF-κB as strongly as wild-type MD-2
